Measurements taken from PMC10988774 (Journal of molecular biology, 2023).

Target: T1, p65 La module, LaMod(108–355) (Tetrahymena thermophila, UniProt W7X6T2 108-355)
T1 sequence (looked up): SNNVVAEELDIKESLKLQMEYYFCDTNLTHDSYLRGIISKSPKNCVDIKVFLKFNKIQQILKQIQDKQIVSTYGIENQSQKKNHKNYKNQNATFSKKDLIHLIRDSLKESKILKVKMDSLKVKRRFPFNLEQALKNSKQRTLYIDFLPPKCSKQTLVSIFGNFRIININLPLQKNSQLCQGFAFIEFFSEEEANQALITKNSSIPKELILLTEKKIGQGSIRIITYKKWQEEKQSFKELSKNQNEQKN
Test: NMR titration

- binding result: binds
B1: p65 N-terminal domain, NTD (residues 1–109) (domain or fragment, Tetrahymena thermophila, UniProt W7X6T2 1-109, looked up)
chain: MDEYLENTNLEELEQECFMEDYQHEDVVEQENHQVDANDIYENQQMNDESQLNQDVKISQQKEQAVEMIEEQQQNNQDKFKQFQDCMAHITELNFKRNYQNLTEQSSSN
